These results are taken from patent US20170152311A1 (published 2017).

Assay [1] deals with T1, recombinant human M-CSF (human, UniProt P09603 33-190, limits assumed).
T1 sequence: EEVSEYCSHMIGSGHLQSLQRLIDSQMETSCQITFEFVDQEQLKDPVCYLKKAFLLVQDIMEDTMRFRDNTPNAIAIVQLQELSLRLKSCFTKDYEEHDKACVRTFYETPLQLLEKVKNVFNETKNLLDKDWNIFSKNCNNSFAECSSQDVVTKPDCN
As to the kind of experiment: cell-based or functional assay.

In assay [2] the target is T1, recombinant human M-CSF. The experiment in a line: SPR (Biacore), M-CSF amine-coupled on CM5 chip, antibody flowed, 25 C, 1:1 model. The method, then:
(§1) To determine the relative differences in the binding affinity of intact antibodies by Biacore analysis, M-CSF was immobilized onto CMS biosensor chip via amine coupling. 0.05 μg/ml M-CSF in 10 mM Na-Acetate pH 4.0 was injected at 1 μl/min for 5 minutes to achieve RL=6-12 RU. Test antibody or Fab fragments were flowed over the modified biosensor surface at varying concentrations ranging from 100 nM to 1.5 nM in 2-fold dilutions. Test antibodies were diluted in 0.01 M HEPES pH 7.4, 0.15 M NaCL, 3 mM EDTA, 0.005% Surfactant P20 (HBS-EP) and all experiments were done at 25° C. Each concentration point and buffer blanks were run in triplicate, and data was collected over 3 minutes of association and 8 minutes of dissociation. Kinetic and affinity constants were determined using Biaevaluation software with a 1:1 interaction model/global fit.

The target in assay [3] is T1, recombinant human M-CSF. As to the kind of experiment: SPR (Biacore), M-CSF amine-coupled on CM5 chip, antibody flowed. As to the method: as §1
For orientation: Surface plasmon resonance follows binding to a sensor surface in real time, without labels.

The target in assay [4] is T1, recombinant human M-CSF. As to the kind of experiment: SPR (Biacore), M-CSF amine-coupled on CM5 chip, antibody flowed 100 nM to 1.5 nM, 25 C, 1:1 model. As to the method: as §1
Assay [5] has as its target T1, recombinant human M-CSF. As to the kind of experiment: SPR (Biacore), M-CSF amine-coupled on CM5 chip, antibody or Fab flowed, 25 C, 1:1 model. As to the method: Specifically, M-CSF was immobilized onto CM5 biosensor chip via amine coupling. 0.05 μg/ml M-CSF in 10mM Na Acetate pH 4.0 was injected at 1 μl/min for 5 minutes to achieve RL=6-12 RU. Test antibody (or Fab fragment) were flowed over the modified biosensor surface at varying concentrations. Test antibodies were diluted in 0.01 M HEPES pH 7.4, 0.15 M NaCL, 3 mM EDTA, 0.005% Surfactant P20 (HBS-EP) and all experiments were done at 25° C. Kinetic and affinity constants were determined using Biaevaluation software (Biacore) with a 1:1 interaction model/global fit.

The target of assay [6] is T1, recombinant human M-CSF. The experiment in a line: SPR (Biacore), antibody captured on anti-mouse Fc chip, M-CSF flowed, 25 C, 1:1 model. The method, then:
Binding properties of the aforementioned antibodies were analyzed using Biacore analyses. […] The aforementioned antibodies were then captured on the anti-mouse Fc/CM5 biosensor chip at 1.5 μg/ml for 3 min at 2 μl/min. MCSF was flowed over the modified biosensor surface at varying concentrations (Rmax ˜15). Test antibodies and antigen were diluted in 0.01 M HEPES pH 7.4, 0.15 M NaCL, 3 mM EDTA, 0.005% Surfactant P20 (HBS-EP). All experiments were performed at 25° C. Kinetic and affinity constants were determined using Biaevaluation software (Biacore) with a 1:1 interaction model/global fit.

B1: heRX1-2.G2 (antibody, V domains shown)
VH: QVQLQESGPGLVKPSQTLSLTCTVSDYSITSDYAWNWIRQFPGKGLEWMGYISYSGSTSYNPSLKSRITISRDTSKNQFSLQLNSVTAADTAVYYCASFDYAHAMDYWGQGTTVTVSS
VL: EIVLTQSPGTLSVSPGERVTFSCRASQSIGTSIHWYQQKTGQSPRLLIKYASERISGIPDRFSGSGSGTDFTLTISRVESEDFADYYCQQINSWPTTFGQGTKLEIKR
notes: not shown: human Gamma-2 heavy chain constant region; human Kappa light chain constant region (the printed V regions end in EIKRT, which may overlap its start)
As to B1, the “IC50 Fold Loss” value with recombinant human M-CSF [1] amounted to 3.1 fold. In addition, in the assay with recombinant human M-CSF [2], the Kd came to 7.6 nM, the dissociation rate constant (koff) is 0.00165 s⁻¹ and the kon was 218000 M⁻¹ s⁻¹. In addition, the “fold decrease in binding affinity compared to the parent murine antibody” value (shortened to “fold decrease in binding affinity”) with recombinant human M-CSF [3] is not below 7 fold.

B2: heRX1-7.G2 (antibody, V domains shown)
VH: DVQLQESGPGLVKPSQTLSLTCTVTDYSITSDYAWNWIRQFPGKKLEWMGYISYSGSTSYNPSLKSRITISRDTSKNQFSLQLNSVTAADTATYYCASFDYAHAMDYWGQGTTVTVSS
VL: EIVLTQSPGTLSVSPGERVTFSCRASQSIGTSIHWYQQKTGQAPRLLIKYASESISGIPDRFSGSGSGTDFTLTISRVESEDFADYYCQQINSWPTTFGQGTKLEIK
notes: copies: 2 + 2
B2: the “IC50 Fold Loss” value with recombinant human M-CSF [1] is 6.1 fold. In the assay with recombinant human M-CSF [2], the Kd came out at 9.5 nM, the koff was 0.00149 s⁻¹ and the on-rate constant (kon) came to 157000 M⁻¹ s⁻¹. For the same molecule, the “fold decrease in binding affinity” value in the assay with recombinant human M-CSF [3] was not below 7 fold.

B3: heRX1-8.G2 (antibody, V domains shown)
VH: QVQLQESGPGLVKPSQTLSLTCTVSDYSITSDYAWNWIRQFPGKGLEWMGYISYSGSTSYNPSLKSRITISRDTSKNQFSLQLNSVTAADTAVYYCASFDYAHAMDYWGQGTTVTVSS
VL: EIVLTQSPGTLSVSPGERVTFSCRASQSIGTSIHWYQQKTGQAPRLLIKYASESISGIPDRFSGSGSGTDFTLTISRVESEDFADYYCQQINSWPTTFGQGTKLEIK
notes: copies: 2 + 2
As to B3, the “IC50 Fold Loss” value with recombinant human M-CSF [1] came to 5.9 fold. In the assay with recombinant human M-CSF [2], the Kd turned out to be 9.8 nM, the koff worked out at 0.00148 s⁻¹ and the kon was 152000 M⁻¹ s⁻¹. Moreover, the “fold decrease in binding affinity” value with recombinant human M-CSF [3] is not below 7 fold.

B4: heRX1-4.G2 (antibody, V domains shown)
VH: QVQLQESGPGLVKPSQTLSLTCTVSDYSITSDYAWNWIRQFPGKGLEWMGYISYSGSTSYNPSLKSRITISRDTSKNQFSLQLNSVTAADTAVYYCASFDYAHAMDYWGQGTTVTVSS
VL: EIVLTQSPGTLSVSPGERVTFSCRASQSIGTSIHWYQQKTGQAPRLLIKYASERATGIPDRFSGSGSGTDFTLTISRVESEDFADYYCQQINSWPTTFGQGTKLEIKR
notes: as for B1
Consider B4, for which the “IC50 Fold Loss” value with recombinant human M-CSF [1] turned out to be 4.6 fold. For the same molecule, in the assay with recombinant human M-CSF [2], the Kd came out at 4.6 nM, the off-rate constant (koff) came to 0.00108 s⁻¹ and the kon stood at 238000 M⁻¹ s⁻¹. Also, the “fold decrease in binding affinity” value with recombinant human M-CSF [3] was not below 7 fold.

B5: heRX1-9.G2 (antibody, V domains shown)
VH: DVQLQESGPGLVKPSQTLSLTCTVTDYSITSDYAWNWIRQFPGKKLEWMGYISYSGSTSYNPSLKSRITISRDTSKNQFSLQLNSVTAADTATYYCASFDYAHAMDYWGQGTTVTVSS
VL: DIVLTQSPAFLSVTPGEKVTFTCQASQSIGTSIHWYQQKTDQAPKLLIKYASESISGIPSRFSGSGSGTDFTLTISSVEAEDAADYYCQQINSWPTTFGGGTKLEIKR
notes: not shown: human Gamma-2 heavy chain constant region; human Kappa light chain constant region (the V region entry may overlap its start)
In the case of B5, in the assay with recombinant human M-CSF [1], the “IC50 Fold Loss” value worked out at 3.6 fold. For the same molecule, in the assay with recombinant human M-CSF [2], the Kd turned out to be 7.2 nM, the off-rate constant (koff) came to 0.00144 s⁻¹ and the kon came to 200000 M⁻¹ s⁻¹. The “fold decrease in binding affinity” value in the assay with recombinant human M-CSF [3] is not below 7 fold.

B6: heRX1-5.G2 (antibody, V domains shown)
VH: DVQLQESGPGLVKPSQTLSLTCTVTDYSITSDYAWNWIRQFPGKKLEWMGYISYSGSTSYNPSLKSRITISRDTSKNQFSLQLNSVTAADTATYYCASFDYAHAMDYWGQGTTVTVSS
VL: EIVLTQSPGTLSVSPGERVTFSCRASQSIGTSIHWYQQKTGQSPRLLIKYASESISGIPDRFSGSGSGTDFTLTISRVESEDFADYYCQQINSWPTTFGQGTKLEIKR
notes: as for B1
As to B6, the “IC50 Fold Loss” value with recombinant human M-CSF [1] came to 6.5 fold. For the same molecule, in the assay with recombinant human M-CSF [2], the Kd stood at 7.4 nM, the koff was 0.00129 s⁻¹ and the kon is 175000 M⁻¹ s⁻¹. Further, the “fold decrease in binding affinity” value with recombinant human M-CSF [3] was not below 7 fold.

B7: heRX1-3.G2 (antibody, V domains shown)
VH: DVQLQESGPGLVKPSQTLSLTCTVTDYSITSDYAWNWIRQFPGKKLEWMGYISYSGSTSYNPSLKSRITISRDTSKNQFSLQLNSVTAADTATYYCASFDYAHAMDYWGQGTTVTVSS
VL: EIVLTQSPGTLSVSPGERVTFSCRASQSIGTSIHWYQQKTGQAPRLLIKYASERATGIPDRFSGSGSGTDFTLTISRVESEDFADYYCQQINSWPTTFGQGTKLEIKR
notes: as for B1
Regarding B7, the “IC50 Fold Loss” value with recombinant human M-CSF [1] was found to be 5.3 fold. Besides, in the assay with recombinant human M-CSF [2], the Kd amounted to 5.9 nM, the koff was determined as 0.00118 s⁻¹ and the kon turned out to be 201000 M⁻¹ s⁻¹. In the assay with recombinant human M-CSF [3], the “fold decrease in binding affinity” value is not below 7 fold.

B8: heRX1-1.G1 (antibody)
heavy: not shown
light: EIVLTQSPGTLSVSPGERVTFSCRASQSIGTSIHWYQQKTGQSPRLLIKYASERISGIPDRFSGSGSGTDFTLTISRVESEDFADYYCQQINSWPTTFGQGTKLEIKRT
notes: heavy pMXC29 Low Risk (Kabat), Gamma 1; also called heRX1-1-IgG1; heRX1-1.IgG1; not shown: human Kappa light chain constant region (the printed V regions end in EIKRT, which may overlap its start)
For B8, in the assay with recombinant human M-CSF [4], the dissociation constant Kd was found to be 0.95 nM, the koff was 0.000238 s⁻¹ and the kon stood at 250000 M⁻¹ s⁻¹.

B9: heRX1-1.G4 (antibody)
heavy: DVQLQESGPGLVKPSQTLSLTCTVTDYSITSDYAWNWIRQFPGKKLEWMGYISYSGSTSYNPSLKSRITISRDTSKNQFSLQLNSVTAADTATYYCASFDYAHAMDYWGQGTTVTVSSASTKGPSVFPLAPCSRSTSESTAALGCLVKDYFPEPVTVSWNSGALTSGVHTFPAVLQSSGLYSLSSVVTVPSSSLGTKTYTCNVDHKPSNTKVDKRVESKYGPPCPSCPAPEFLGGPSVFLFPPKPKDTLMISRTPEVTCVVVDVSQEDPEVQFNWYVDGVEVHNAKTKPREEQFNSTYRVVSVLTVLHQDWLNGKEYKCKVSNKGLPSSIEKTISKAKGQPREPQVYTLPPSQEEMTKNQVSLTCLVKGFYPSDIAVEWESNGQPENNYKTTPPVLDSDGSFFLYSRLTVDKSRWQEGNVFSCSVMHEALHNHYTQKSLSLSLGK
light: EIVLTQSPGTLSVSPGERVTFSCRASQSIGTSIHWYQQKTGQSPRLLIKYASERISGIPDRFSGSGSGTDFTLTISRVESEDFADYYCQQINSWPTTFGQGTKLEIKRT
notes: also called heRX1-1-IgG4; heRX1-1.IgG4; not shown: human Kappa light chain constant region (the printed V regions end in EIKRT, which may overlap its start)
With B9, in the assay with recombinant human M-CSF [4], the Kd stood at 1.42 nM, the koff came out at 0.000293 s⁻¹ and the kon was 207000 M⁻¹ s⁻¹.

B10: rRX1 Fab (mouse) (Fab, V domains shown)
VH: DVQLQESGPGLVKPSQSLSLTCTVTDYSITSDYAWNWIRQFPGNKLEWMGYISYSGSTSYNPSLKSRISITRDTSKNQFFLQLNSVTTEDTATYYCASFDYAHAMDYWGQGTSVTVSS
VL: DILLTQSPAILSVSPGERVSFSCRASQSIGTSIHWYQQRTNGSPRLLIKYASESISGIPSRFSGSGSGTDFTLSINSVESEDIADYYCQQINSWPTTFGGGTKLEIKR
notes: Fab fragment; also called Fab fragment of RX1
As to B10, in the assay with recombinant human M-CSF [5], the equilibrium dissociation constant (Kd) stood at 10.8 nM, the koff was found to be 0.00303 s⁻¹ and the kon stood at 281000 M⁻¹ s⁻¹.

B11: murine monoclonal antibody 5H4 (antibody, mouse IgG1, kappa, V domains shown)
VH: EIQLQQSGPELVKTGTSVKISCKASGYSFTGYFMHWVKQSHGKSLEWIGYISCYNGDTNYNQNFKGKATFTVDTSSSTAYMQFNSLTSEDSAVYYCAREGGNYPAYWGQGTLVTVSA
VL: DIVMTQSHKFMSTSVGDRVTITCKASQNVGTAVTWYQQKPGQSPKLLIYWTSTRHAGVPDRFTGSGSGTDFTLTISDVQSEDLADYFCQQYSSYPLTFGAGTKLELKR
On to B11, for which, in the assay with recombinant human M-CSF [6], the Kd was 3 nM, the koff stood at 0.00177 s⁻¹ and the kon is 594000 M⁻¹ s⁻¹. In the assay with recombinant human M-CSF [5], the Kd was 9.9 nM, the off-rate constant (koff) came to 0.00126 s⁻¹ and the kon turned out to be 127000 M⁻¹ s⁻¹.

B12: murine monoclonal antibody MC3 (antibody, V domains shown)
VH: DVQLQESGPGLVKPSQSLSLTCTVTGYSITSDYAWNWIRQFPGNKLEWMGYISYSGSTSYNPSLKSRISITRDTSKNQFFLQLNSVTTEDTATYYCARLETWLFDYWGQGTTLTVSS
VL: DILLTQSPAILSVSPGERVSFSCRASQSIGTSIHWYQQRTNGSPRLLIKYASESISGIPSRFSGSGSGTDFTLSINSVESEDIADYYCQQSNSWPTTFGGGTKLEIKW
notes: Hybridoma ATCC PTA-6264
For the molecule B12, in the assay with recombinant human M-CSF [6], the dissociation constant Kd came out at 0.27 nM, the koff was 0.000193 s⁻¹ and the kon stood at 704000 M⁻¹ s⁻¹.

Broadly, the Kd is the concentration at which binding is half-saturated. A word on the koff: it is the first-order rate constant of dissociation. As usually defined, the kon is a measure of how fast the partners come together.
